Reference: the supplement of paper PMC10065799, “High-throughput profiling of sequence recognition by tyrosine kinases and SH2 domains using bacterial peptide display” (eLife, 2023)

Key:
AncSZ = assay: phosphorylation enrichment, bacterial display (enrichment ratio); higher = better substrate or ligand; peptides without Tyr show the background
EPHB1 = EPHB1 (UniProt P54762); assay: as above
EPHB2 = EPHB2 (UniProt P29323); assay: as above
FGFR1 = FGFR1 (UniProt P11362); assay: as above
FGFR3 = FGFR3 (UniProt P22607); assay: as above
Fer (mouse) = assay: as above
Fes = Fes (UniProt P07332); assay: as above
Chain of Fes (P07332 whole entry, looked up): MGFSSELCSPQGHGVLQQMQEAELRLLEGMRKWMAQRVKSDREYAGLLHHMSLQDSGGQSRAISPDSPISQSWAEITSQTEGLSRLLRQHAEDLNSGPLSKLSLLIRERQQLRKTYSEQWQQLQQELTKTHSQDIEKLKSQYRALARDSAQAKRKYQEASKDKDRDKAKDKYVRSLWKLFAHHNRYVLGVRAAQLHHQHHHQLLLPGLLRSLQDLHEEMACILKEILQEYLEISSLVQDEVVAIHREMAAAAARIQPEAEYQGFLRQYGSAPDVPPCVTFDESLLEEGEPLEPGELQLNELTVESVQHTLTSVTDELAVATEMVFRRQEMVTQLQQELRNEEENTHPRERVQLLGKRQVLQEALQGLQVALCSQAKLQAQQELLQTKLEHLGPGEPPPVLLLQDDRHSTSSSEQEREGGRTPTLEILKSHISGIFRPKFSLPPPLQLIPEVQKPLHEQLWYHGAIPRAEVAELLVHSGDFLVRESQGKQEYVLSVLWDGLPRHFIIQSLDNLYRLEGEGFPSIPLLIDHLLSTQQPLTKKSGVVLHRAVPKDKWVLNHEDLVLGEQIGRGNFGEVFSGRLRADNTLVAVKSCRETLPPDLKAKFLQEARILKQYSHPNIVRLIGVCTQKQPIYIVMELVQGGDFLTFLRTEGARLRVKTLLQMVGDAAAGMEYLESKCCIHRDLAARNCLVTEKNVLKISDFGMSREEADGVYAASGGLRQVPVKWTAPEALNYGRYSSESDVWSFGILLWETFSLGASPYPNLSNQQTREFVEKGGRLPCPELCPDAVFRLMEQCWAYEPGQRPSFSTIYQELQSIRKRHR

Fyn = Fyn (UniProt P06241); assay: as above
Hck = Hck (UniProt P08631); assay: as above
Chain of Hck (P08631 whole entry, looked up): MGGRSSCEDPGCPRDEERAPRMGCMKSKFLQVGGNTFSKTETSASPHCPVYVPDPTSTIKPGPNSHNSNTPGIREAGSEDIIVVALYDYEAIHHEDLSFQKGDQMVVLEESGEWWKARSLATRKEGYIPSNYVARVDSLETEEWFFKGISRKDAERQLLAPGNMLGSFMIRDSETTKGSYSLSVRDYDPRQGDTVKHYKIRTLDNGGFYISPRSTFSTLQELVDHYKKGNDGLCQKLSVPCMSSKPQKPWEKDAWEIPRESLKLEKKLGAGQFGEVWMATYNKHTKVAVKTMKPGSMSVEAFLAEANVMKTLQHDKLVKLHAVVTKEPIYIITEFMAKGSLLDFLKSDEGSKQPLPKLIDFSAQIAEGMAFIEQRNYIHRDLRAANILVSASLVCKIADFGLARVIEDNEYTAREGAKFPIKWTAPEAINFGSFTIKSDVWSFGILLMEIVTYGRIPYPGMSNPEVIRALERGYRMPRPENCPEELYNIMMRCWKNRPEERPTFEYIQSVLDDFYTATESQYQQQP

Jak2 = Jak2 (UniProt O60674); assay: as above
Chain of Jak2 (O60674 whole entry, looked up): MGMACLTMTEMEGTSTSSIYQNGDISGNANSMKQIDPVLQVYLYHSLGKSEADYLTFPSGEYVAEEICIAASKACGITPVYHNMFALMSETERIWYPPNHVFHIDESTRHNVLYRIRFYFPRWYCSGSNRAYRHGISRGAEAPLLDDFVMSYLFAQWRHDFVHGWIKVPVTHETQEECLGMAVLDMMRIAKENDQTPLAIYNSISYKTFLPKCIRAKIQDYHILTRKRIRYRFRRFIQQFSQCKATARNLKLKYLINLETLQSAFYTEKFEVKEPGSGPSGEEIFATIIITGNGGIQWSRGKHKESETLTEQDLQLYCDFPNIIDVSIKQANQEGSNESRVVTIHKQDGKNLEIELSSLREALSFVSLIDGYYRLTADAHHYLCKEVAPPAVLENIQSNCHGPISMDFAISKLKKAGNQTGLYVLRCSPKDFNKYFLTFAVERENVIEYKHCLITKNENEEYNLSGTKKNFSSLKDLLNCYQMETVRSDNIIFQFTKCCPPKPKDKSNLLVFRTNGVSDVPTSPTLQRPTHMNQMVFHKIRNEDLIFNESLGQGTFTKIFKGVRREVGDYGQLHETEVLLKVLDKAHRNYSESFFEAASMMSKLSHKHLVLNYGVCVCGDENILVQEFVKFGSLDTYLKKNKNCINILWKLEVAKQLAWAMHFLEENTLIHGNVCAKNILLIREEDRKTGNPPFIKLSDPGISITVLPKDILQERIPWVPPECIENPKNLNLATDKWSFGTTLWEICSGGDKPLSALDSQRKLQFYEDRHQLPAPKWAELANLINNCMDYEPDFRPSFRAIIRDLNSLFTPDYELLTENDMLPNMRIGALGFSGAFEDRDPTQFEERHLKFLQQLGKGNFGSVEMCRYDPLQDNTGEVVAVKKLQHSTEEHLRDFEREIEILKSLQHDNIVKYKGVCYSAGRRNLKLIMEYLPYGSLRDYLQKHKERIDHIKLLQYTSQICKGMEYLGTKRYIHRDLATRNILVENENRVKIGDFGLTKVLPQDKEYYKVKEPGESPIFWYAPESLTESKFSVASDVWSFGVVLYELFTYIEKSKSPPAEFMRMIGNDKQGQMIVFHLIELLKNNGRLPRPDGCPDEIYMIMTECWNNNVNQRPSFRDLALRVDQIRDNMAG

MERTK = MERTK (UniProt Q12866); assay: as above
Chain of MERTK (Q12866 whole entry, looked up): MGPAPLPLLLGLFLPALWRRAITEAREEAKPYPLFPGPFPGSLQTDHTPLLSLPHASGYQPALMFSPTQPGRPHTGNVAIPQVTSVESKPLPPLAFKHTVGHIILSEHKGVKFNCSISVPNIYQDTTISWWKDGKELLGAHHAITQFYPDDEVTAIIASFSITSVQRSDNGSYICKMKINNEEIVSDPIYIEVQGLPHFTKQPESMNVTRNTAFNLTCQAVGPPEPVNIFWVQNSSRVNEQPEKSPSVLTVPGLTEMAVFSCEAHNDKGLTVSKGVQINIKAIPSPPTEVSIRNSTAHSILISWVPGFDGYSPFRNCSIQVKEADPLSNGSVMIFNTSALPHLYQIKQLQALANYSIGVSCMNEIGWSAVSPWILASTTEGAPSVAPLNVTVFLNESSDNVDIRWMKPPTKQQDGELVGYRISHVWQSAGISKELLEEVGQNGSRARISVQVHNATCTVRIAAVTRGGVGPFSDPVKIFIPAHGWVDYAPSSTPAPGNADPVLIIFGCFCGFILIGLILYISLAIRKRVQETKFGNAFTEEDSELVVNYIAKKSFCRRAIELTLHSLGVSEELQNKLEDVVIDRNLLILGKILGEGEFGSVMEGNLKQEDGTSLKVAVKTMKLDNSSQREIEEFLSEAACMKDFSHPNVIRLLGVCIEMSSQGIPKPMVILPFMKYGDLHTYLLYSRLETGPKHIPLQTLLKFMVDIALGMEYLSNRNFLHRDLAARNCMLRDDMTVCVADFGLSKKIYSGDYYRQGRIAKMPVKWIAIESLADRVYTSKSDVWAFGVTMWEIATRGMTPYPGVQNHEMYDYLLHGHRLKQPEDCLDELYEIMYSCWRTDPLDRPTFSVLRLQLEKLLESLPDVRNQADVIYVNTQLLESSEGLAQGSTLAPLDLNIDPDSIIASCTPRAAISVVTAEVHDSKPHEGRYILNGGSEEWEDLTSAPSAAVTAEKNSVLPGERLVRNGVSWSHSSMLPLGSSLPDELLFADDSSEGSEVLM

c-Abl (mouse) = assay: as above
c-Src = assay: as above
Grb2 SH2 = Grb2 SH2 (UniProt P62993); assay: SH2 binding enrichment of the phosphorylated peptide, bacterial display (enrichment ratio); higher = better substrate or ligand; peptides without Tyr show the background
Chain of Grb2 SH2 (P62993 whole entry, looked up): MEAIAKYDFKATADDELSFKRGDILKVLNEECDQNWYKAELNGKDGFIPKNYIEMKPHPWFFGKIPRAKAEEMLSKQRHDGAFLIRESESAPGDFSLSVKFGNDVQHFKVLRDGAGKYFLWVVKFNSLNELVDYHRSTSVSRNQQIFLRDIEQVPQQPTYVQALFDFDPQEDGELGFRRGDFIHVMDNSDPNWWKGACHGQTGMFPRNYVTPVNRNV

SHP2-C SH2 = assay: as above
c-Src SH2 = assay: as above
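For SH2 binding enrichment of the phosphorylated peptide, bacterial display in this document: peptide library displayed on the E. coli surface as eCPX fusions, selected cells deep-sequenced, score is each peptide's frequency after selection divided by its frequency in the input.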
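For phosphorylation enrichment, bacterial display in this document: 11-residue human phosphosite peptides and single-mutation variants displayed on the E. coli surface, counted by deep sequencing, each peptide's frequency after selection divided by its frequency in the unselected input library; frequency after pTyr selection over input frequency; kinase dosed for 20-30% of maximal phosphorylation in three min.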

Chain of EPHB2 (P29323 whole entry, looked up): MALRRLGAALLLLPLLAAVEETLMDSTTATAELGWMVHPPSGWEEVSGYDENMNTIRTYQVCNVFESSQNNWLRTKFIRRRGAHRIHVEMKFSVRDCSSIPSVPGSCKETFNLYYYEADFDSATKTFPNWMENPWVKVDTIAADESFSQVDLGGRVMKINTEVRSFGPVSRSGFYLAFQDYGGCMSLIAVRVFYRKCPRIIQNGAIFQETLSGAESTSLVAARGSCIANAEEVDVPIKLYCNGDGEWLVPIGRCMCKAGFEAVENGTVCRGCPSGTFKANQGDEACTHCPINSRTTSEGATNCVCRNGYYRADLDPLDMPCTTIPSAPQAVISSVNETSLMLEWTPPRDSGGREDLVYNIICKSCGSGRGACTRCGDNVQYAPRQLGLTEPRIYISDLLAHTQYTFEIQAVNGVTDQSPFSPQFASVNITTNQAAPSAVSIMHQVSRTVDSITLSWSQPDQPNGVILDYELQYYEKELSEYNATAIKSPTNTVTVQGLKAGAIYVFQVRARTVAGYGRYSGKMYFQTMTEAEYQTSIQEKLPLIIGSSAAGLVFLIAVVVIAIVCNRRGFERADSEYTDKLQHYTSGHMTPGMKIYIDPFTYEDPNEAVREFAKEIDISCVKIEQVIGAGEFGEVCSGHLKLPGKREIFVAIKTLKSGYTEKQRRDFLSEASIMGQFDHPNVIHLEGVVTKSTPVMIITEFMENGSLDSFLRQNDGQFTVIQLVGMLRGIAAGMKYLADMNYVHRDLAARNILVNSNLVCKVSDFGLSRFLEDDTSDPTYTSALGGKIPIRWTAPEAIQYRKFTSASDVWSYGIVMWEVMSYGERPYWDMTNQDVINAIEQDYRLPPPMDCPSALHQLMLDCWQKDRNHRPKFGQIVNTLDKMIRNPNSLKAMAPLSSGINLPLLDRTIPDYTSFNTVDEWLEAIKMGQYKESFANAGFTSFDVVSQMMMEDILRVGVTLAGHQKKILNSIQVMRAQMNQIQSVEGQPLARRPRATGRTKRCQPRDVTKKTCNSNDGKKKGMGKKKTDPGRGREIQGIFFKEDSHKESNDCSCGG

Sequence	phosphorylation enrichment (AncSZ)	phosphorylation enrichment (EPHB1)	phosphorylation enrichment (EPHB2)	phosphorylation enrichment (FGFR1)	phosphorylation enrichment (FGFR3)	phosphorylation enrichment (Fer (mouse))	phosphorylation enrichment (Fes)	phosphorylation enrichment (Fyn)	phosphorylation enrichment (Hck)	phosphorylation enrichment (Jak2)	phosphorylation enrichment (MERTK)	phosphorylation enrichment (c-Abl (mouse))	phosphorylation enrichment (c-Src)	SH2 binding enrichment (Grb2 SH2)	SH2 binding enrichment (SHP2-C SH2)	SH2 binding enrichment (c-Src SH2)
GIMEEYQLPFF [BMPR1A_Y453_V450M_YF]	4.83	0.648	0.914	1.7	1.32	0.587	1.11	1.2	0.676	1.09	0.499	2.27	0.894	0.719	0.464	0.49
STEAIYRRYSK [SH3PXD2B_Y42]	0.511	0.302	0.441	0.41	0.425	0.341	0.418	0.456	0.425	0.534	0.466	0.709	0.52	0.836	0.664	0.557
KVKPIYFRTQG [AR_Y916_H918R]	0.701	0.356	0.396	0.475	0.448	0.477	0.644	0.404	0.495	0.491	0.401	0.626	0.454	1.63	1.76	1.51
GEFHVYRHLRW [PRKRIP1_Y82_R87W]	1	0.499	0.458	0.442	0.682	0.413	1.08	0.428	0.429	0.995	0.345	0.723	0.329	0.972	0.838	0.887
AHEALYLEADL [CENPF_Y1920_E1915A]	1.82	0.781	0.802	2.2	2.09	1.12	1.29	0.692	0.736	1.05	1.03	1.09	0.855	0.577	0.386	0.399
HFGCVYFGTLL [MET_Y1093_H1094Y_YF]	1.77	0.917	0.699	1.01	1.51	0.458	1.23	0.899	0.763	1.18	0.528	0.695	3.7	0.857	0.714	0.535
ENFSEYQEIAV [HEMGN_Y150]	1.51	2.29	1.24	1.59	1.38	1.4	1.24	0.586	0.984	1.28	0.507	0.957	0.616	0.98	0.663	0.627
YDEYRYRSFIK [CFTR_Y517_V520F]	1.06	0.54	0.596	0.495	0.679	0.64	0.946	2.33	1.51	1.14	0.518	0.957	1.62	0.901	0.849	1.21
RRIHSYRGHLC [VHL_Y112_W117C]	0.774	0.656	0.619	0.503	0.733	0.382	1.3	0.531	0.63	0.821	0.828	0.534	0.566	0.95	0.478	0.534
LRWREYQRQDF [PRKRIP1_Y90_R87W_YF]	4.24	1.91	2.29	2.28	2.67	1.67	4.93	1.01	2.04	6.28	1.69	3.64	2.67	2.02	1.82	1.34
WPQKLYNNFVN [MYO5C_Y526_L522P]	0.795	0.407	0.546	0.445	0.518	0.377	0.884	0.439	0.528	0.725	0.505	0.687	0.626	1.11	0.668	0.59
VCHELYNAIRD [PBRM1_Y54_T56A]	0.939	0.543	0.574	0.464	0.702	0.567	0.933	0.672	2.62	0.79	0.43	0.693	1.33	0.893	0.737	1.66
DDLTDYLMKIL [ACTA1_Y190_R185D]	1.22	0.476	0.553	0.516	0.669	0.457	1.1	0.444	0.519	1.15	0.529	0.758	0.548	0.962	1.26	0.689
FLGRDYLETLM [DUS3L_Y610_YF]	0.849	0.47	0.459	0.48	0.686	0.591	0.957	0.422	0.401	0.748	0.471	0.685	0.428	0.878	0.96	0.563
EKEQNYDLTEV [ECD_Y448]	1.31	0.569	0.675	0.655	0.73	0.694	1.31	0.544	0.666	1.06	0.593	0.737	0.466	0.962	0.802	0.704
LGMSQYFRLFN [CPT2_Y217_D213G]	0.966	0.601	0.839	0.704	0.766	0.499	1.26	0.364	0.64	3.24	0.58	0.581	0.381	1.06	3.46	0.805
CTTIHYNYMCI [TP53_Y234_N239I]	0.946	5.99	2.4	2.52	1.55	1.05	1	0.487	0.494	0.859	1.41	0.509	0.462	1.87	2.53	2.6

Sequence	phosphorylation enrichment (AncSZ)	phosphorylation enrichment (EPHB1)	phosphorylation enrichment (EPHB2)	phosphorylation enrichment (FGFR1)	phosphorylation enrichment (FGFR3)	phosphorylation enrichment (Fer (mouse))	phosphorylation enrichment (Fes)	phosphorylation enrichment (Fyn)	phosphorylation enrichment (Hck)	phosphorylation enrichment (Jak2)	phosphorylation enrichment (MERTK)	phosphorylation enrichment (c-Abl (mouse))	phosphorylation enrichment (c-Src)	SH2 binding enrichment (Grb2 SH2)	SH2 binding enrichment (SHP2-C SH2)	SH2 binding enrichment (c-Src SH2)
DDDPEYRKFLE [UPF3B_Y160]	1.32	0.612	0.7	0.669	0.799	0.478	1.22	0.617	0.597	1.06	0.566	0.577	0.483	0.834	0.542	0.547
VFAADYFKLLG [ROR2_Y645_YF]	0.819	0.52	0.403	7.25	4.37	0.467	0.643	0.417	0.439	7.31	0.394	0.498	0.562	0.983	0.638	0.527
EVEPRYVVLFD [ERCC4_Y577_YF]	1.18	3.47	3.06	0.999	0.973	0.568	1.04	0.547	0.505	1.11	4.21	0.777	0.667	0.802	1.33	3.48
MAALSYVSEIG [BPIFB2_Y36_K31M]	0.642	0.397	0.521	0.447	0.584	0.394	0.733	0.432	0.4	0.804	0.371	0.615	0.431	0.819	0.857	0.478
KILAKYLLETS [NAMPT_Y175]	0.66	0.431	0.412	0.353	0.421	0.411	0.664	0.35	0.368	0.645	0.385	0.571	0.395	0.766	0.614	0.513
LNTFHYAGVSA [POLR2A_Y1109]	0.656	0.434	0.415	0.407	0.56	0.469	0.722	0.419	0.45	0.584	0.449	0.552	0.464	0.9	1.64	1.32
MKALGYFAVVT [OPA1_Y498]	1.25	0.852	0.773	0.579	0.996	0.655	1.53	0.63	0.825	1.62	0.403	0.892	0.436	0.769	0.752	0.488
IAKNPYDPPGR	0.56	0.363	0.333	0.405	0.48	0.37	0.689	0.344	0.316	0.635	0.426	0.455	0.38	0.765	0.482	0.543
YSTDCYRVGGH [NTRK2_Y707_Y706C]	0.733	0.554	0.555	0.594	0.683	0.414	0.827	0.438	0.45	0.639	3.67	0.79	0.415	0.891	0.735	0.896
GADDSYFTVRS [ZAP70_Y492_A495V_YF]	1.59	0.558	0.498	3.54	2.62	0.484	1	0.604	0.968	1.73	0.468	0.665	0.846	0.854	0.625	0.645
ETKTPYTVILI [SBDS_Y128_R126T]	0.999	0.543	0.637	0.592	0.794	1.06	1.22	0.483	0.569	0.961	0.534	0.651	0.485	0.671	2.27	0.54
LSGVIYVILGK [PMP22_Y153_R157G]	1.73	0.93	0.588	0.867	0.977	0.754	2.88	0.828	0.885	2.72	0.771	1.87	0.796	0.746	0.801	0.653
SVTCTYSPALS [TP53_Y126_N131S]	2.15	0.673	0.645	0.396	0.697	0.508	1.63	0.424	0.553	1.42	0.42	1.42	0.719	0.844	0.44	0.468
VGNPAYRSFSN [IL4R_Y497_A492V]	0.518	0.368	0.417	0.412	0.435	0.509	0.546	0.441	0.329	0.608	0.374	0.478	0.376	0.862	0.547	0.405
SARFRYLMAEK [LDHB_Y173]	0.695	0.436	0.467	0.352	0.469	0.348	0.652	0.365	0.435	0.692	0.397	0.566	0.436	0.952	0.508	0.543
KLPFPYDDPFS [GPX2_Y127_YF]	1.05	0.587	0.773	0.63	0.755	0.772	1.11	0.545	0.663	0.9	0.525	1.16	0.831	1.12	0.761	3.9
